# In patent publication US10077319B2, “Anti-PCSK9-GLP-1 fusions and methods for use” (MedImmune, LLC, priority 2014, dated 2018):
# Where a chain is given by its changes, count along the chain named. Names and notes keep the numbering of the source.
# B1: HS9_DSB7_L26G: HS9_DSB7 with peptide point mutation L26G; SEQ ID NO: 469 (protein)
# chain: HGEGTFTSDLSKQMEEECVRLFIEWGKNGGPSSGAPPPGCGGGGGSGGGGSGGGGSADIQMTQSPSSLSASVGDRVTITCQASQDVKTAVAWYQQKPGKAPKLLIYSASYRYTGVPSRFSGSGSGTDFTFTISSLQPEDIATYYCQQRYSLWRTFGQGTKLEIK
# B2: HS9_DSB7_L26E: HS9_DSB7 with peptide point mutation L26E; SEQ ID NO: 470 (protein)
# chain: B1 chain with G26E
# B3: HS9_DSB7_L26D: HS9_DSB7 with peptide point mutation L26D; SEQ ID NO: 471 (protein)
# chain: B1 chain with G26D
# Molecular target: human GLP-1 receptor (Homo sapiens, UniProt P43220)
# Sequence (P43220 24-463): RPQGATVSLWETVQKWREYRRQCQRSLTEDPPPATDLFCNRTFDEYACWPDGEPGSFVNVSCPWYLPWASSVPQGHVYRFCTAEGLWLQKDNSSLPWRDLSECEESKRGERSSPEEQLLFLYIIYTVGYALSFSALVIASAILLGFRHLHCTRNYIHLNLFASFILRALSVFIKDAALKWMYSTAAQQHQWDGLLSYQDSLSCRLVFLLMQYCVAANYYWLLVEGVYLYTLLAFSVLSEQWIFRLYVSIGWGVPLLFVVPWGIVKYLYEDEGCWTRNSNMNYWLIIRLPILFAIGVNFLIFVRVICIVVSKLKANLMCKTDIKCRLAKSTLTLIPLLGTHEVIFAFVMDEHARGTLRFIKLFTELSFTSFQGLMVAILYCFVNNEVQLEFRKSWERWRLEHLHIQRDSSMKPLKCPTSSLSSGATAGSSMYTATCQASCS
# Experiment: cAMP production assay in CHO cells expressing human GLP-1 receptor
# Format: cell-based
# Conditions: Table 18; for % Max Effect: maximum activation compared to GLP-1
# Method: Low protein binding 384-well plates (Greiner) were used to perform eleven 1 in 4 serial dilutions of test compound that were made in assay medium (0.1% bovine serum albumin in Hanks Balanced Salt Solution (GIBCO or Sigma), containing 0.5 mM IBMX (Sigma)). All sample dilutions were made in duplicate. […] Cells were then re-suspended in assay buffer at the optimized concentration of 1×10^5 cells/mL and dispensed at 5 uL per well to black shallow-well u-bottom 384-well plates (Corning). 5 μL of test compound was transferred from the dilution plate to the cell plate and incubated at room temperature for 30 minutes. cAMP levels were measured the cAMP dynamic 2 HTRF kit (Cisbio), following the two step protocol as per manufacturer's recommendations. Briefly, anti-cAMP cryptate (donor fluorophore) and cAMP-d2 (acceptor fluorophore) were made up separately by diluting each 1/20 in conjugate & lysis buffer provided in the kit. 5 uL of anti-cAMP cryptate was added to all wells of the assay plate and 5 uL of cAMP-d2 added to all wells except non-specific binding wells, to which only conjugate and lysis buffer was added. […] Data was transformed to % Delta F as described in manufacturer's guidelines and analyzed by unconstrained 4-parameter logistic fit of data, curve mid-point to determine EC50.
Molecule,% Max Effect,Potency at huGLP-1R in cAMP assay (M)
B1,81%,–
B2,Inactive,Inactive
B3,Inactive,Inactive
